B1: 4H5 抗体 (monoclonal antibody produced by Mouse-Mouse hybridoma 4H5, FERM P-16807) (antibody, IgG1, V domains shown)
VH: QVQLQQSGPELVKPGASVKMSCKASGYTFTDYVINWLNQRTGQGLEWIGEIYPGSGSAYYNEMFKGKATLTADKSSNTAYMQLSSLTSEDSAVYFCARRGTGTGFAYWGRGTLVTVSA
VL: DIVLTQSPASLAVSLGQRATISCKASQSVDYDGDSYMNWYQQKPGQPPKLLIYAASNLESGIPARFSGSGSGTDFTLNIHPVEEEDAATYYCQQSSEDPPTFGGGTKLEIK
notes: also called 4H5 antibody; 抗ヒトCD4抗体 4H5
B2: キメラ 4H5抗体 (ヒトマウスキメラ抗CD4抗体, expressed from pG14H5 in COS7 cells) (antibody, V domains shown)
VH: B1 VH
VL: not shown

Legend:
[1] = molecular target: T1, ヒト可溶性CD4 (human soluble CD4 prepared in Example 2, C-terminal FLAG-tag, from COS7 cells) (human, UniProt P01730 26-396); assay: SPR (BIAcore 2000), antibody amine-coupled on CM5, soluble CD4 as analyte
T1 construct: extracellular domain; no cleavage site is stated; also called ヒトCD4; CD4分子

[2] = molecular target: T1, ヒト可溶性CD4 (human soluble CD4 prepared in …); assay: SPR (BIAcore 2000), soluble CD4 amine-coupled on CM5, antibody (50 ug/ml) as analyte

| Binder | Kd [1] [nM] | fold higher binding affinity than 13B8.2抗体 (comparison of KD) [1] [fold] | koff [1] [s⁻¹] | kon [1] [M⁻¹ s⁻¹] | Kd [2] [nM] | koff [2] [s⁻¹] | kon [2] [M⁻¹ s⁻¹] |
| --- | --- | --- | --- | --- | --- | --- | --- |
| B1 | 1.71 | ~4.4 | 0.000231 | 135000 | 0.808 | 5.33e-06 | 6600 |
| B2 |  |  |  |  | 1.24 | 2.92e-05 | 23600 |

Reference: JPH11332563A (dated 1999)
